B1: Transcription factor p65 (Mus musculus), Q04207 (parent)
chain: MDDLFPLIFPSEPAQASGPYVEIIEQPKQRGMRFRYKCEGRSAGSIPGERSTDTTKTHPTIKINGYTGPGTVRISLVTKDPPHRPHPHELVGKDCRDGYYEADLCPDRSIHSFQNLGIQCVKKRDLEQAISQRIQTNNNPFHVPIEEQRGDYDLNAVRLCFQVTVRDPAGRPLLLTPVLSHPIFDNRAPNTAELKICRVNRNSGSCLGGDEIFLLCDKVQKEDIEVYFTGPGWEARGSFSQADVHRQVAIVFRTPPYADPSLQAPVRVSMQLRRPSDRELSEPMEFQYLPDTDDRHRIEEKRKRTYETFKSIMKKSPFNGPTEPRPPTRRIAVPTRNSTSVPKPAPQPYTFPASLSTINFDEFSPMLLPSGQISNQALALAPSSAPVLAQTMVPSSAMVPLAQPPAPAPVLTPGPPQSLSAPVPKSTQAGEGTLSEALLHLQFDADEDLGALLGNSTDPGVFTDLASVDNSEFQQLLNQGVSMSHSTAEPMLMEYPEAITRLVTGSQRPPDPAPTPLGTSGLPNGLSGDEDFSSIADMDFSALLSQISS
partner: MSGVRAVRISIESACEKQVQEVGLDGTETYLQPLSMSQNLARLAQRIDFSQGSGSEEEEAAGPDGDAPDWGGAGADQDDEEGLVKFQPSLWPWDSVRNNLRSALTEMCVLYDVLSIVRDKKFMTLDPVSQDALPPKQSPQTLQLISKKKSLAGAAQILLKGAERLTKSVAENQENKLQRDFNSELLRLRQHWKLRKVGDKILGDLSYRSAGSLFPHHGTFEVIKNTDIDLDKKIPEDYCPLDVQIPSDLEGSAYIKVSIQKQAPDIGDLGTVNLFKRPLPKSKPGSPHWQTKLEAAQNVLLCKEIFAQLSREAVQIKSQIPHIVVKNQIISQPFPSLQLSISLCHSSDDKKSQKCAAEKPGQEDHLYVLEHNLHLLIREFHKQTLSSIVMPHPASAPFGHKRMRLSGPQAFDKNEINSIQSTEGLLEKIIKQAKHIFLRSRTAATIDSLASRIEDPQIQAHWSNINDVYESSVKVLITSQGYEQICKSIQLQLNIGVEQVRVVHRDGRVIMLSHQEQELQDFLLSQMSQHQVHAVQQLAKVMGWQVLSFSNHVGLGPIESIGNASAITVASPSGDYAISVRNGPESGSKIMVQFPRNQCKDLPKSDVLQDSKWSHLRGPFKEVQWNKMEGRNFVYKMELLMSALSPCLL

Variants of: B1
Conditions: with med17_mouse Med17, Q8VCD5
In the case of G528A;D529A;E530A;D531S;F532A;S533A;S534A, the “effect of a mutation on the interaction” value is reported as “disrupting interaction”.
D539A;F540A was tested, and the “effect of a mutation on the interaction” value was “disrupting interaction”.
I535A;D537A;M538S;D539A;F540A;S541A was tested, and the “effect of a mutation on the interaction” value was “disrupting interaction”.
